Data published in patent US6462178B1, “G protein” (Yong Hou Wong, priority 1999, dated 2002).
Read-outs that look alike come from different tables or passages of the source.

Experiments:
dopamine D2 receptor [1] = target: T1, dopamine D2 receptor (Homo sapiens, UniProt P14416); conditions: COS-7, receptor + Gα16, 10 μM dopamine, cited from earlier work
dopamine D2 receptor [2] = target: T1, dopamine D2 receptor; conditions: 10 μM dopamine; for IP Formation % Res.: relative to basal
[3] = target: formyl peptide (fMLP) receptor
dopamine D2 receptor [4] = target: dopamine D2 receptor
melatonin Mel1c receptor [5] = target: melatonin Mel1c receptor
[6] = target: opioid receptor-like (ORL1) receptor
melatonin Mel1b receptor = target: T2, melatonin Mel1b receptor
T2 sequence (P49286 whole entry, species assumed, looked up): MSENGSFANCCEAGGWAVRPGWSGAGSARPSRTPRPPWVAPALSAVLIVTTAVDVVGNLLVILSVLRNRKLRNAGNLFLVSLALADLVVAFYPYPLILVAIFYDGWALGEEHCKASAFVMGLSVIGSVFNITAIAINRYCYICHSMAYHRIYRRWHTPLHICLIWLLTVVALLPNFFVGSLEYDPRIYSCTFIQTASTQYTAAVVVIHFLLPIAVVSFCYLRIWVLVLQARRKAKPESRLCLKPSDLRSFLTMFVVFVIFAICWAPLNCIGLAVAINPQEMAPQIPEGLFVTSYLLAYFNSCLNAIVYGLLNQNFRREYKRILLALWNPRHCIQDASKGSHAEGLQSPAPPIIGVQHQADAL

melatonin Mel1c receptor [7] = target: melatonin Mel1c receptor; remark: listed apart in the source
[8] = COS-7, receptor + 16z25 chimera
[9] = COS-7, receptor + 16z44 chimera

T1 sequence (P14416 whole entry): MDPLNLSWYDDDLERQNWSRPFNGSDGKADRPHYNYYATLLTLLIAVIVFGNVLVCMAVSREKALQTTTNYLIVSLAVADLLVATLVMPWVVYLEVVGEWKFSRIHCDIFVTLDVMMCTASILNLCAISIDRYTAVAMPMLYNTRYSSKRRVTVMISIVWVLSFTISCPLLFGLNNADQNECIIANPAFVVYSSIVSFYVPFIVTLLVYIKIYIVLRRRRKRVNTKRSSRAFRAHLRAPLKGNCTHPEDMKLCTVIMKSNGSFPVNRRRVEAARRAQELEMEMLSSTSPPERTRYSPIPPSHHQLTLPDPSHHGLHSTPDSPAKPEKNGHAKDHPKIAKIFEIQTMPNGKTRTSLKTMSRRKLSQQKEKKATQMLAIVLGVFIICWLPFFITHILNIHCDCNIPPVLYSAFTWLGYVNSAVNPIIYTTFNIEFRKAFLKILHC
T1 sequence (P14416 whole entry): as above

## NCCc1ccc(O)c(O)c1 [dopamine]
Dopamine D2 receptor [1]
  IP Formation Agonist: 24.0 ± 2.3
Dopamine D2 receptor [1]; relative to basal
  IP Formation % Res.: 207a %
Dopamine D2 receptor [2]; [8]
  IP Formation Agonist: 40.1 ± 0.9
  IP Formation % Res.: 324%
Dopamine D2 receptor [2]; [9]
  IP Formation Agonist: 84.5 ± 6.2
  IP Formation % Res.: 302%

B1: 16z44 chimera (protein)
chain: MARSLTWRCCPWCLTEDEKAAARVDQEINRILLEQKKQDRGELKLLLLGPGESGKSTFIKQMRIIHGAGYSEEERKGFRPLVYQNIFVSMRAMIEAMERLQIPFSRPESKHHASLVMSQDPYKVTTFEKRYAAAMQWLWRDAGIRACYERRREFHLLDSAVYYLSHLERITEEGYVPTAQDVLRSRMPTTGINEYCFSVQKTNLRIVDVGGQKSERKKWIHCFENVIALIYLASLSEYDQCLEENNQENRMKESLALFGTILELPWFKSTSVILFLNKTDILEEKIPTSHLATYFPSFQGPKQDAEAAKRFILDMYTRMYTGCVDGPEGSNRNKETKEIYSHFTCATDTSNIQFVFDAVTDVIIQNNLKYIGLC
Dopamine D1 receptor
  IP formation (PLC stimulation), % Res.: 287 % Res.
α2-adrenergic receptor
  IP formation (PLC stimulation), % Res.: 297 % Res.
Complement C5a receptor
  IP formation (PLC stimulation), % Res.: 457 % Res.
[3]
  IP formation (PLC stimulation), % Res.: 428 % Res.
Vasopressin V2 receptor
  IP formation (PLC stimulation), % Res.: 321 % Res.
κ-opioid receptor
  IP formation (PLC stimulation), % Res.: 257 % Res.
Adenosine A1 receptor
  IP formation (PLC stimulation), % Res.: 188 % Res.
β2-adrenergic receptor
  IP formation (PLC stimulation), % Res.: 307 % Res.
Dopamine D2 receptor [4]
  IP formation (PLC stimulation), % Res.: 302 % Res.
Melatonin Mel1c receptor [5]
  IP formation (PLC stimulation), % Res.: 307 % Res.
[6]
  IP formation (PLC stimulation), % Res.: 380 % Res.
δ-opioid receptor
  IP formation (PLC stimulation), % Res.: 548 % Res.
Melatonin Mel1b receptor
  IP formation (PLC stimulation), % Res.: 177 % Res.
Melatonin Mel1a receptor
  IP formation (PLC stimulation), % Res.: 171 % Res.
µ-opioid receptor
  IP formation (PLC stimulation), % Res.: 269 % Res.
Bombesin receptor
  IP formation, enhancement of the agonist response by coexpressed 16z44: 57%
5HT1c receptor
  IP formation, enhancement of the agonist response by coexpressed 16z44: 43%
Muscarinic m1 receptor
  IP formation, enhancement of the agonist response by coexpressed 16z44: 34%
Melatonin Mel1c receptor [7]
  EC50 of 2-iodomelatonin for IP formation: 0.4 nM
